These results are taken from patent US20040048377A1.

Chain of mouse Grg4 (Q62441 whole entry): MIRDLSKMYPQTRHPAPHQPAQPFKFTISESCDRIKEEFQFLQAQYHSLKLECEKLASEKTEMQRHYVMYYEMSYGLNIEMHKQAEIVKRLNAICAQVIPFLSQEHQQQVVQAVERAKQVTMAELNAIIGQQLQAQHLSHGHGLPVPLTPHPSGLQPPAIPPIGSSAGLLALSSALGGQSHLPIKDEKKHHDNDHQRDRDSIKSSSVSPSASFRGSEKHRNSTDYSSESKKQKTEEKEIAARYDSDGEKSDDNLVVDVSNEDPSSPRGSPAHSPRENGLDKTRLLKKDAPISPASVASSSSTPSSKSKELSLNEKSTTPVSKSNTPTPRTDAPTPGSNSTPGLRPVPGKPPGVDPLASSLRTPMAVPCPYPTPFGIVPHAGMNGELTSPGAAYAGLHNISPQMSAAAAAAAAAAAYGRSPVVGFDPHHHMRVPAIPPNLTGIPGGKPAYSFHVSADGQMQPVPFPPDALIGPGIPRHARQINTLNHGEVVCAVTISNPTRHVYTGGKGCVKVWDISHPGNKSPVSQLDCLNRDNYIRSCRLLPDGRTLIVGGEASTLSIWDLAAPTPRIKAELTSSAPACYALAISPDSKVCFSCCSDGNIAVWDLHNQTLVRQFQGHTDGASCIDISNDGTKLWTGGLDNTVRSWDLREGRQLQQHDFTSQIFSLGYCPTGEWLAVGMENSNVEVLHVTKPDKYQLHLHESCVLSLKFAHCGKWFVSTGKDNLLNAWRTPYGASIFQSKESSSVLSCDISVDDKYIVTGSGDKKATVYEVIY

In one experiment the target is Nkx6.1ΔTN (Nkx6.1 with the TN domain deleted, Δaa 90-113) (rat) (UniProt O35762). The experiment can be described thus: immuno-precipitation, 35S-labelled Grg4, Nkx protein on antibody-proteinA-sepharose.
Chain of Nkx6.1ΔTN (Nkx6.1 with the TN domain deleted, Δaa 90-113) (rat) (O35762 other isoform, or with tags, fused parts or gaps mutant): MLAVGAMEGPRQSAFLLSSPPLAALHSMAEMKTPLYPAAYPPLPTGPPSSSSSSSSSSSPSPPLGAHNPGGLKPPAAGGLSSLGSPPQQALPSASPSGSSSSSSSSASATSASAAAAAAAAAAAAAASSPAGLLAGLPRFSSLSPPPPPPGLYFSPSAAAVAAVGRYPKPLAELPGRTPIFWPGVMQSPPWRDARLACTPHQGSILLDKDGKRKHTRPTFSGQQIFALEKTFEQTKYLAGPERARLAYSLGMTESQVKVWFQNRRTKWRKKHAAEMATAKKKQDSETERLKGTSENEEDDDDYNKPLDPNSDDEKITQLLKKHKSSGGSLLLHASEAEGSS
In the case of mouse Grg4 (from UniProt Q62441 1-773), the fold reduction of the interaction with Grg4 compared to the full-length protein came out at 5 fold.

A further experiment deals with mouse Grg4 (mouse) (UniProt Q62441). The experiment can be described thus: cell-based or functional assay.
Chain of mouse Grg4 (mouse) (Q62441 whole entry, the tested form may be a part): as the sequence (Q62441 whole entry) above
For “Gal-Nkx2.2 (full-length Nkx2.2 fused to the DNA binding domain of yeast Gal4) (from UniProt P04386 1-147)”, the repressor activity in the UAS-luciferase reporter assay in COS-7 cells, with increasing amounts of co-transfected Grg4 is less than 10 fold.
“Gal-Nkx2.9 (full-length Nkx2.9 fused to the DNA binding domain of yeast Gal4) (from UniProt P04386 1-147; O70584 1-235)”: the repressor activity in the UAS-luciferase reporter assay in COS-7 cells, with increasing amounts of co-transfected Grg4 was less than 10 fold.
Still for that read-out and setting: the result for “Gal-Nkx6.1 (full-length Nkx6.1 fused to the DNA binding domain of yeast Gal4) (from UniProt P04386 1-147; O35762 1-365)” reads less than 10 fold; that for “Gal-Nkx6.1ΔTN (Nkx6.1 lacking aa 90-113 fused to the DNA binding domain of yeast Gal4) (from UniProt P04386 1-147; O35762 1-89; O35762 114-365)”, 2 fold.
Still for that read-out and setting: under “Gal-Nkx6.2 (full-length Nkx6.2 fused to the DNA binding domain of yeast Gal4) (from UniProt P04386 1-147; P43688 1-289)” stands less than 10 fold; under “Gal-Nkx6.2ΔTN (Nkx6.2 lacking aa 2-73 fused to the DNA binding domain of yeast Gal4) (from UniProt P04386 1-147)”, 2 fold.
